From US20050208610

Experiments:
[1] = target: T1, peptide CR002 (amino acids 41-60)
T1 chain: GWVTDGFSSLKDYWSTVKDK

[2] = target: T2, peptide CR006 (amino acids 49-62)
T2 chain: SLKDYWSTVKDKFS

B1: TF:VIIa complex (protein)
chain 1: SGTTNTVAAYNLTWKSTNFKTILEWEPKPVNQVYTVQISTKSGDWKSKCFYTTDTECDLTDEIVKDVKQTYLARVFSYPAGNVESTGSAGEPLYENSPEFTPYLETNLGQPTIQSFEQVGTKVNVTVEDERTLVRRNNTFLSLRDVFGKDLIYTLYYWKSSSSGKKTAKTNTNEFLIDVDKGENYCFSVQAVIPSRTVNRKSTDSPVECMGQEKGEFREIFYIIGAVVFVVIILVIILAISLHKCRKAGVGQSWKENSPLNVS
chain 2: ANAFLEELRPGSLERECKEEQCSFEEAREIFKDAERTKLFWISYSDGDQCASSPCQNGGSCKDQLQSYICFCLPAFEGRNCETHKDDQLICVNENGGCEQYCSDHTGTKRSCRCHEGYSLLADGVSCTPTVEYPCGKIPILEKRNASKPQGRIVGGKVCPKGECPWQVLLLVNGAQLCGGTLINTIWVVSAAHCFDKIKNWRNLIAVLGEHDLSEHDGDEQSRRVAQVIIPSTYVPGTTNHDIALLRLHQPVVLTDHVVPLCLPERTFSERTLAFVRFSLVSGWGQLLDRGATALELMVLNVPRLMTQDCLQQSRKVGDSPNITEYMFCAGYSDGSKDSCKGDSGGPHATHYRGTWYLTGIVSWGQGCATVGHFGVYTRVSQYIEWLQKLMRSEPRPGVLLRAPFP
[1]
  2-stage chromogenic substrate assay that determines TF:VIIa-mediated activation of factor X: retained the ability to inhibit TF:VIIa mediated activation of factor X, but at much lower potency than the apolipoprotein CIII fragment
Peptide CR005
  2-stage chromogenic substrate assay that determines TF:VIIa-mediated activation of factor X: showed no inhibitory activity in the chromogenic substrate assay
Peptide CR004
  2-stage chromogenic substrate assay that determines TF:VIIa-mediated activation of factor X: showed no inhibitory activity in the chromogenic substrate assay
[2]
  2-stage chromogenic substrate assay that determines TF:VIIa-mediated activation of factor X: Progressive loss of potency was shown as additional N-terminal residues were removed (CR006; amino acids 49-62)
Peptide CR003
  2-stage chromogenic substrate assay that determines TF:VIIa-mediated activation of factor X: showed no inhibitory activity in the chromogenic substrate assay
